Test results published in the supplement of paper PMC10065799, “High-throughput profiling of sequence recognition by tyrosine kinases and SH2 domains using bacterial peptide display” (eLife, 2023).

How the values were obtained:
Fer (mouse) = test: phosphorylation enrichment, bacterial display (enrichment ratio); higher = better substrate or ligand; peptides without Tyr show the background
FGFR1 = FGFR1 (UniProt P11362); test: as above
Fyn = Fyn (UniProt P06241); test: as above
Jak2 = Jak2 (UniProt O60674); test: as above
AncSZ = test: as above
EPHB1 = EPHB1 (UniProt P54762); test: as above
EPHB2 = EPHB2 (UniProt P29323); test: as above
FGFR3 = FGFR3 (UniProt P22607); test: as above
Hck = Hck (UniProt P08631); test: as above
Fes = Fes (UniProt P07332); test: as above
MERTK = MERTK (UniProt Q12866); test: as above
c-Src = test: as above
c-Abl (mouse) = test: as above
SHP2-C SH2 = test: SH2 binding enrichment of the phosphorylated peptide, bacterial display (enrichment ratio); higher = better substrate or ligand; peptides without Tyr show the background
Grb2 SH2 = Grb2 SH2 (UniProt P62993); test: as above
c-Src SH2 = test: as above
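For SH2 binding enrichment of the phosphorylated peptide, bacterial display in this document: peptide library displayed on the E. coli surface as eCPX fusions, selected cells deep-sequenced, score is each peptide's frequency after selection divided by its frequency in the input.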
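For phosphorylation enrichment, bacterial display in this document: 11-residue human phosphosite peptides and single-mutation variants displayed on the E. coli surface, counted by deep sequencing, each peptide's frequency after selection divided by its frequency in the unselected input library; frequency after pTyr selection over input frequency; kinase dosed for 20-30% of maximal phosphorylation in three min.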

EPHB1, sequence (P54762 whole entry, looked up): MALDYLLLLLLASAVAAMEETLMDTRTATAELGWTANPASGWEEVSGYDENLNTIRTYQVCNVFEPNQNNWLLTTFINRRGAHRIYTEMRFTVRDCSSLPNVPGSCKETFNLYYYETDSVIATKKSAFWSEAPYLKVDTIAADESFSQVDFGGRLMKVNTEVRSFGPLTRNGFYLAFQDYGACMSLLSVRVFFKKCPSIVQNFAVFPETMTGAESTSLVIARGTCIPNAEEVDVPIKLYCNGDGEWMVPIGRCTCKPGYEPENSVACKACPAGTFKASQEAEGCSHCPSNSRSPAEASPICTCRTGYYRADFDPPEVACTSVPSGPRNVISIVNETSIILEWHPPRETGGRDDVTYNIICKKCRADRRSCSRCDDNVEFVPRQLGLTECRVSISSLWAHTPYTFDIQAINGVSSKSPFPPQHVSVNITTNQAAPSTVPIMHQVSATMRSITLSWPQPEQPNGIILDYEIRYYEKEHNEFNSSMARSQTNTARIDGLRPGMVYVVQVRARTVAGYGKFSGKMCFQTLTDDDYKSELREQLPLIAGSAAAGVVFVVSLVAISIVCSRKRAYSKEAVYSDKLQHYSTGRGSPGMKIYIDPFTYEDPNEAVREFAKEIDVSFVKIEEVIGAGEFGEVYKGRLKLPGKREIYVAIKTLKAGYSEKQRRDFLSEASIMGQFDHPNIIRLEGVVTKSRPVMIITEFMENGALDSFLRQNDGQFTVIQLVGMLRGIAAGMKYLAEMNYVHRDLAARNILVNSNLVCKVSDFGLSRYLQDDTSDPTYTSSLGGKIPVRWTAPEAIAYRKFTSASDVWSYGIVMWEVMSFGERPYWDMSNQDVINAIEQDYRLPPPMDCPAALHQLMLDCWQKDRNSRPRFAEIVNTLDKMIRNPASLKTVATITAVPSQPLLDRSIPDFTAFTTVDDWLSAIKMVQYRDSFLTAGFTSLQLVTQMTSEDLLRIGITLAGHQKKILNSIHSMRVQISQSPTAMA
FGFR1, sequence (P11362 whole entry, looked up): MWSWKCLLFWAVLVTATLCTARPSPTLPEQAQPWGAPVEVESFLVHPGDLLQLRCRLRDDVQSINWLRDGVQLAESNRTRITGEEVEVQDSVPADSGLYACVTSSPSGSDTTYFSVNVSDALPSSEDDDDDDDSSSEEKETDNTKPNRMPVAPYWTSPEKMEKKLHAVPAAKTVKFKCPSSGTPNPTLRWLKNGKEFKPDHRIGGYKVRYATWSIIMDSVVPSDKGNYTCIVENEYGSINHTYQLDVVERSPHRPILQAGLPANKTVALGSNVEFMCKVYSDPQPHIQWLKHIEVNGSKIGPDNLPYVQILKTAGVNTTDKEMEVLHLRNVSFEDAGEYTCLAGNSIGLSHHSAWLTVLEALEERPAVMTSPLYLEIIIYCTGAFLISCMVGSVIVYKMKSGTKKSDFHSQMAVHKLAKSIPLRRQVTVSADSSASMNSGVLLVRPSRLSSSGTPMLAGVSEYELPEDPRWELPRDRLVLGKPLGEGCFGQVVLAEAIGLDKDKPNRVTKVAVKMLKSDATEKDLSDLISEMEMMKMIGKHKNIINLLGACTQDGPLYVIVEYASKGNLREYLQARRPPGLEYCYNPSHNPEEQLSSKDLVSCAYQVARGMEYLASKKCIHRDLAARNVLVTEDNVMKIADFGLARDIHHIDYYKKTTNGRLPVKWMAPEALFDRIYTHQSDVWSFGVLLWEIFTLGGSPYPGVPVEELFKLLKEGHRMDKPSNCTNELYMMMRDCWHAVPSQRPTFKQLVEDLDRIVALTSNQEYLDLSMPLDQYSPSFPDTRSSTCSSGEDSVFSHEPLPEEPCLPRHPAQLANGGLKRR
Fyn, sequence (P06241 whole entry, looked up): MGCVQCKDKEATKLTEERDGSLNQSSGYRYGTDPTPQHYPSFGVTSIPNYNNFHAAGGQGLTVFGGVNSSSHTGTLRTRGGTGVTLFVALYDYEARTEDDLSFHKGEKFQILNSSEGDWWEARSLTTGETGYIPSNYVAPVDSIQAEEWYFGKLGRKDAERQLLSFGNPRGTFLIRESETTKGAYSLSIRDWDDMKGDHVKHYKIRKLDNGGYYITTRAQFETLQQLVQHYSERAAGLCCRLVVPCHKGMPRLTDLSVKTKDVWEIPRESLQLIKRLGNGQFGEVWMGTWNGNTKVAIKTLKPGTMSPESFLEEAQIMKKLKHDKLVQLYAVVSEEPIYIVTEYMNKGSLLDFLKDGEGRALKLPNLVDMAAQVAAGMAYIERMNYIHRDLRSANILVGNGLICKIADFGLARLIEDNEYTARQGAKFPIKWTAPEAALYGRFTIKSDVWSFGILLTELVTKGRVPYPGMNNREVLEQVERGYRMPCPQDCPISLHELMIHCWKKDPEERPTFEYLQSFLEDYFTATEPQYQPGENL
FGFR3, sequence (P22607 whole entry, looked up): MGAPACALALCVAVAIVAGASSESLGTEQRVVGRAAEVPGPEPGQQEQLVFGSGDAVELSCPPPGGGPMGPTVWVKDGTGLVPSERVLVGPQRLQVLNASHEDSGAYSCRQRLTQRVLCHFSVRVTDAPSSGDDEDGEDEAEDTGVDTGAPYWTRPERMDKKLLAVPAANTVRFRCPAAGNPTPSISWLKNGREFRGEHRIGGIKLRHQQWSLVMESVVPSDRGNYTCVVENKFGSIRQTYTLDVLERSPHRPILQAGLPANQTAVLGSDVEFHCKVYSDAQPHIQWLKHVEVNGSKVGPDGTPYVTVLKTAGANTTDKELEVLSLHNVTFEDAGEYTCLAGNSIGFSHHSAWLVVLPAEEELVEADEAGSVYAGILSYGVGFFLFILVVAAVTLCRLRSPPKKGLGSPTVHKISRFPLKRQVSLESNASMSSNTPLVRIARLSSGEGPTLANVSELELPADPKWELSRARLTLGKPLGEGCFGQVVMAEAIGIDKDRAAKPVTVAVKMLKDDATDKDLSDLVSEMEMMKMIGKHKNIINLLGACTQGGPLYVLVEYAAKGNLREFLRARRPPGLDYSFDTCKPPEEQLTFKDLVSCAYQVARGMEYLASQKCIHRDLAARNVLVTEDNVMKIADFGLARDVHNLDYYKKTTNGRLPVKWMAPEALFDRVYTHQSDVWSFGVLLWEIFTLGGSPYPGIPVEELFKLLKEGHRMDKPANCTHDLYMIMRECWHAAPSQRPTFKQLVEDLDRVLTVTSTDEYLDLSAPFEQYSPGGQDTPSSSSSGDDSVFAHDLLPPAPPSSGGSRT
MERTK, sequence (Q12866 whole entry, looked up): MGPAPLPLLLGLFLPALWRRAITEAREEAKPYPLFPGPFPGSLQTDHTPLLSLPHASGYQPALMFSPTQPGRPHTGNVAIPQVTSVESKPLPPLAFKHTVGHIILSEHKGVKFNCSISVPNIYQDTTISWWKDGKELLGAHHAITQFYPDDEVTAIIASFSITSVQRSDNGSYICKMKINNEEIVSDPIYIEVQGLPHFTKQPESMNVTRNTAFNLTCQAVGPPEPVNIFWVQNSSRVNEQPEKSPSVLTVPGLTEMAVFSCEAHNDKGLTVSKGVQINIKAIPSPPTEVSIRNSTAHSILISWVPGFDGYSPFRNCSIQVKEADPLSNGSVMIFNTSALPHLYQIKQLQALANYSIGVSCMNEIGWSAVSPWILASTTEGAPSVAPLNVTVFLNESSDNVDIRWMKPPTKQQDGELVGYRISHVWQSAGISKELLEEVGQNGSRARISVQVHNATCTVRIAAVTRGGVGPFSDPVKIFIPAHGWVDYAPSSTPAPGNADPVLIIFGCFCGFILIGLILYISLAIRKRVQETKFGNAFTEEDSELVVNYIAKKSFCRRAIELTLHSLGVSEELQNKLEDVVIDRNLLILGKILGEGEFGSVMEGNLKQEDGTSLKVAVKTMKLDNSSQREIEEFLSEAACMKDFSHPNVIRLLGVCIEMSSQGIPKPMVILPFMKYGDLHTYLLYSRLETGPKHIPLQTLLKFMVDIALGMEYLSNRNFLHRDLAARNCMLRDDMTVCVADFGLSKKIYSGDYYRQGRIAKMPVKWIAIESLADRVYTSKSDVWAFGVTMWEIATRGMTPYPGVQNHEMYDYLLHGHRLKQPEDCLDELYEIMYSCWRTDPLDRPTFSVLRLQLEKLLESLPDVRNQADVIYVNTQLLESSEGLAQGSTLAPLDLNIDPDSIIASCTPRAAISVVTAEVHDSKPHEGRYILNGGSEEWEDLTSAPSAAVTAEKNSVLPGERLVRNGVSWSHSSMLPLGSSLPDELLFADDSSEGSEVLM
Hck, sequence (P08631 whole entry, looked up): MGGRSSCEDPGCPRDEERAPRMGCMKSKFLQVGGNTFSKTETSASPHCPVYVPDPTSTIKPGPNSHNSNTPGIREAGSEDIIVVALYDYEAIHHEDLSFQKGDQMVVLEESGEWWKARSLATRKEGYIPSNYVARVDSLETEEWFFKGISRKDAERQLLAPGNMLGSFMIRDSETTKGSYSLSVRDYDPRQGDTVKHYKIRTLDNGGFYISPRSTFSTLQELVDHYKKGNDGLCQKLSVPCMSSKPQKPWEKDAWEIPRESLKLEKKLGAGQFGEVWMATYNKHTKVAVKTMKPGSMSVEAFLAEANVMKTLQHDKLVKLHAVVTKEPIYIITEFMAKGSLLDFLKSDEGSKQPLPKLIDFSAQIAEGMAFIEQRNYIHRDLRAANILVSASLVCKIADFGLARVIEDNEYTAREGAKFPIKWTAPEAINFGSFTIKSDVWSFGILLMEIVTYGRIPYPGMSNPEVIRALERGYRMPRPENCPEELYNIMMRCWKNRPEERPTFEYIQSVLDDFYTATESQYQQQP

| SH2 binding enrichment (SHP2-C SH2) | SH2 binding enrichment (Grb2 SH2) | SH2 binding enrichment (c-Src SH2) | Sequence | phosphorylation enrichment (Fer (mouse)) | phosphorylation enrichment (FGFR1) | phosphorylation enrichment (Fyn) | phosphorylation enrichment (Jak2) | phosphorylation enrichment (AncSZ) | phosphorylation enrichment (EPHB1) | phosphorylation enrichment (EPHB2) | phosphorylation enrichment (FGFR3) | phosphorylation enrichment (Hck) | phosphorylation enrichment (Fes) | phosphorylation enrichment (MERTK) | phosphorylation enrichment (c-Src) | phosphorylation enrichment (c-Abl (mouse)) |
| --- | --- | --- | --- | --- | --- | --- | --- | --- | --- | --- | --- | --- | --- | --- | --- | --- |
| 0.538 | 0.829 | 0.58 | YKEDPYLVVNP [MCM6_Y810_E806K] | 0.46 | 1.24 | 1.04 | 1.03 | 1.19 | 0.405 | 0.515 | 1.09 | 0.591 | 1.11 | 0.455 | 1.74 | 0.662 |
| 0.685 | 0.75 | 0.323 | YLEEEYVKAVG [TF_Y674_G671E] | 0.615 | 0.606 | 0.491 | 1.18 | 1.36 | 0.629 | 0.63 | 0.893 | 0.575 | 1.32 | 0.454 | 0.505 | 1.01 |
| 0.666 | 0.747 | 0.972 | YQLENCCNGGG [INS_Y108_Y108C] | 0.535 | 0.547 | 0.689 | 0.763 | 0.829 | 1.05 | 0.522 | 0.621 | 0.563 | 0.903 | 0.601 | 0.59 | 0.556 |
| 1.28 | 1.31 | 0.91 | YQQLFYLLQIN [IQGAP2_Y890_T894I] | 0.751 | 2.23 | 0.625 | 1.67 | 1.57 | 1.21 | 0.829 | 2.15 | 0.911 | 1.81 | 1.31 | 1 | 1.3 |
| 0.774 | 0.774 | 0.683 | YRDALYKFIVD [PHEX_Y250_M253I] | 0.759 | 0.952 | 0.623 | 1 | 1.08 | 1.97 | 1.02 | 1.38 | 0.706 | 1.25 | 1.65 | 0.638 | 0.916 |
| 0.58 | 0.608 | 0.391 | YRVAGYETQGG [TIA1_Y383] | 0.351 | 0.399 | 0.378 | 0.392 | 0.436 | 0.329 | 0.338 | 0.352 | 0.37 | 0.646 | 0.324 | 0.295 | 0.906 |
| 0.533 | 0.974 | 0.589 | YSKTQYNQVPR [CXADR_Y318_S323R] | 0.471 | 0.421 | 0.319 | 0.451 | 0.531 | 0.315 | 0.431 | 0.532 | 0.487 | 0.542 | 0.514 | 0.462 | 0.465 |
